From patent US20160347804A1 (IPIERIAN, published 2016) come the findings set out here.

Assay [1] addresses T1, full-length recombinant tau (0N4R) (UniProt P10636-6 1-383).
T1 construct: The screening step used biotin-labeled full-length tau; also called rTau383
Description: direct binding ELISA-type assay, purified mAb, full-length recombinant tau 0N4R.

In a further assay the target is T2, eTau1 (human, UniProt P10636 2-547).
T2 construct: also called recombinant eTau1 fragment; eTau 2-172
Description: direct binding assay, purified mAb, recombinant eTau fragment.

Another assay concerns the target T3, eTau3 (human, UniProt P10636 2-497).
T3 construct: Recombinant eTau fragment; also called recombinant eTau3; reTau3
Described as above.

For another assay, the target named is T4, eTau2 (human, UniProt P10636 2-526).
T4 construct: Recombinant eTau fragment; also called recombinant eTau2; reTau2
The assay is described as above.

Assay [2] deals with T5, eTau4 (human, UniProt P10636 2-124).
T5 construct: Recombinant eTau fragment; also called recombinant eTau4
Described as above.

The target in assay [3] is T5, eTau4. Description: direct binding ELISA, antibody titrated on eTau4, OD-450 nm.
Assay [4] deals with full-length recombinant tau (0N4R) (UniProt P10636 1-383). Description: direct binding ELISA, antibody titrated on rTau383, OD-450 nm. For orientation: In an ELISA, binding on a coated surface is turned into a signal by an enzyme label.
The target of assay [5] is T1, full-length recombinant tau (0N4R). Described as above.

T3 sequence (P10636 other isoform, or with tags, fused parts or gaps limits assumed): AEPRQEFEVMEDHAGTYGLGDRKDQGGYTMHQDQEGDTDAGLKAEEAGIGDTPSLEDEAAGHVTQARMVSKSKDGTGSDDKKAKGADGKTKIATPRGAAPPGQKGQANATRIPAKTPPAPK
T1 sequence (P10636 other isoform, or with tags, fused parts or gaps limits assumed): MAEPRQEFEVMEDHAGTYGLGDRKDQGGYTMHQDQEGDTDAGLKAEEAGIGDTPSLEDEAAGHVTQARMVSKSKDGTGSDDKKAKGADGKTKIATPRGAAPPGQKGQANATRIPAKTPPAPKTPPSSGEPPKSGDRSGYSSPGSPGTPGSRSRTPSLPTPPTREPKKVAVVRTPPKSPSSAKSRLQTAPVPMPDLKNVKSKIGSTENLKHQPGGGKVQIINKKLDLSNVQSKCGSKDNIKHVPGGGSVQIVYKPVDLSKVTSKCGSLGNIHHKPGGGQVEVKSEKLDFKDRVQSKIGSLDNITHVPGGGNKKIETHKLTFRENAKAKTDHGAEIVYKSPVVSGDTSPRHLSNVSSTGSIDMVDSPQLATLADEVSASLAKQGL
T5 sequence (P10636 other isoform, or with tags, fused parts or gaps limits assumed): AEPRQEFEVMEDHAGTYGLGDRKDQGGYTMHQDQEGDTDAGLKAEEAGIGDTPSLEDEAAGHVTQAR
T4 sequence (P10636 other isoform, or with tags, fused parts or gaps limits assumed): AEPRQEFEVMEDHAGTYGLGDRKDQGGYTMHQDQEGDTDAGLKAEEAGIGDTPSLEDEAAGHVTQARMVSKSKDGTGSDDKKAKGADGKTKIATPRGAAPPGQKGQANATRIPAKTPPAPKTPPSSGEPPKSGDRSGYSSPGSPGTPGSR
T2 sequence (P10636 other isoform, or with tags, fused parts or gaps limits assumed): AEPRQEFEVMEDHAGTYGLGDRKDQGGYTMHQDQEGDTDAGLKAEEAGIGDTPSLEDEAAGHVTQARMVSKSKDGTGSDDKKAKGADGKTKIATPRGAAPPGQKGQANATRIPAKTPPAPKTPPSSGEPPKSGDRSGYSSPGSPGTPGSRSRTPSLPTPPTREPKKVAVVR

B1: 7295-M6 (antibody, V domains shown)
VH: EVQLEESGAELVRSGASVTLSCTASGFNIKDYYIHWVKQRPEQGLEWIGWIDPENGDTEYAPKFQGKATMTADTSSNTAYLQLSSLTSEDTAVYYCNGAPGYWGPGTTLTVSS
VL: DIVLTQTPLSLPVSLGDPASISCRSSQTIVHSNGNTYLEWYLQKPGQSPKLLIYKVSNRFSGVPDRFSGSGSGTDFTLKISRVEAEDLGVYYCFQGSHVPFTFGSGTKLEIKR
notes: also called anti-Tau mAb 7295-M6
With B1, the Kd – broadly, the concentration at which binding is half-saturated – in assay [1] worked out at 0.117 nM; in the assay with eTau1, 0.0528 nM. Further, the binding result with eTau3, with eTau2 and in the assay with eTau4 [2] was “no binding” throughout.

B2: 7295-M8 (antibody, IgG2b, V domains shown)
VH: EVQLEESGAELVRSGASVTLSCTASGFNIKDYYIHWVKQRPEQGLEWIGWIDPENGDTEYAPKFQGKATMTADTSSNTAYLQLSSLTSEDTAVYYCNGAPGYWGPGTTLTVSS
VL: DIVLTQTPLSLPVSLGDPASISCRSSQTIVHSNGNTYLEWYLQKPGQSPKLLIYKVSNRFSGVPDRFSGSGSGTDFTLKISRVEAEDLGVYYCFQGSHVPFTFGSGTKLEIKR
notes: also called anti-Tau mAb 7295-M8
B2: the values for the Kd (in assay [1]; in the assay with eTau1) were 0.08 nM and 0.044 nM, respectively. In addition, the binding result with eTau3, with eTau2 and with eTau4 [2] was “no binding” throughout.

B3: 7297-2M1 (antibody, IgG1, V domains shown)
VH: EVQLEQSGAELVKPGASVKLSCKASGYTFISNWMHWVKQRPGQGLEWIGNIDPSDSETHYNQKFKDKATLTVDKSSSTAYMQLSSLTSEDSAVYYCARRDRDGYYFDYWGQGTTLTVSS
VL: DIVLTQTPSSLSASLGGKVTITCKASQDINKYIAWYQHKPGKGPRLLIHYTSTLQSGIPSRFSGSGSGRDYSFSISNLEPEDIATYYCLQYDHLLTFGAGTKLELKR
notes: also called anti-Tau mAb 7297-2M1
As to B3, the Kd in assay [1] was found to be 2.21 nM; in the assay with eTau1 it was 0.1 nM; with eTau2, 0.09 nM. The binding result with eTau3 and with eTau4 [2] was “no binding” in each case.

B4: 7299-M5 (antibody, IgG2b, V domains shown)
VH: EVKLEESGAELVKPGASVKLSCKASGYTFISNWMHWVKQRPGQGLEWIGNIDPSDSETHYNQKFKDKATLTVDKSSSTAYMQLSSLTSEDSAVYYCARRDRDGYYFDYWGQGTTLTVSS
VL: DIVMTQSPLSLSVTIGQPASISCKSSQSLLYSDGKTYLNWLQQRPGQSPKRLVYQVSKLDPGIPDRFSGSGSETDFTLKLSRVEAEDLGVYYCLQGTYYPHTFGGGTKLEIKR
For the molecule B4, the Kd turned out to be 0.511 nM in assay [1]; 0.6 nM with eTau1; 0.6 nM in the assay with eTau3; 1 nM with eTau2; 0.5 nM with eTau4 [2].

B5: IPN002 (antibody, V domains shown)
VH: EVHLVESGGALVKPGGSLKLSCAASGFSFSKYGMSWVRQTPDKRLEWVATISSSGSRTYYPDSVKGQFTISRDNAKNTLYLQMSSLKSEDTAMYYCSISWDGAMDYWGQGTSVTVSS
VL: DVLMTQTPLSLPVSLGDQASISCKSSQSIVHSNGNTYLEWYLQKPGQSPKLLVYKVSNRFSGVPDRFSGSGSGTDFTLKISRVEAEDLGTYYCFQGSLVPWAFGGGTKLEIK
On to B5, for which the EC50 (read off the curve) (commonly the concentration at which the effect is half-maximal) in the assay with eTau4 [3] was approximately 0.1 nM; in assay [4], approximately 0.07 nM.

B6: 7298-M1 (antibody, IgG2a, V domains shown)
VH: EVQLEESGGGLVQPGGSLSLSCAASGFTFTDYYMSWVRQPPGKALEWVALNRNKTKGYTTEYSASVKGRFTISRDNSQSILYLQMNALRAEDSATYYCARGMDYWGQGTSVTVSS
VL: DIVLTQSPTSLAVSLGQRATISCRASKSVSTSDYSYMHWYQQKPGQPPKLLIYLASNLESGVPARFSGSGSGTDFTLNIHPVEEEDAATYYCQHSRELPFTFGGGTKLEIKR
notes: also called anti-Tau mAb 7298-M1
As for B6, the Kd came out at 6.68 nM in assay [1], 3 nM with eTau1, 0.1 nM with eTau3 and 1 nM in the assay with eTau2. The binding result with eTau4 [2] is “no binding”.

B7: 7298-M2 (antibody, IgG2a, V domains shown)
VH: EVQLEESGGGLVKPGGSLKLSCAASGFTFSTYPMSWVRQTPEKRLEWVASISNGGSTYYPDTVKGRFTISRDNARNILYLQMSSLRSEDTAMYYCARGRDYHFDFWGQGTTLTVSS
VL: DIVLTQSPTSLAVSLGQRATISCRASKSVSTSDYSYMHWYQQKPGQPPKLLIYLASNLESGVPARFSGSGSGTDFTLNIHPVEEEDAATYYCQHSRELPFTFGGGTKLEIKR
notes: also called anti-Tau mAb 7298-M2
Regarding B7, the Kd in assay [1] is 4.41 nM; with eTau1, 2 nM; in the assay with eTau3, 0.08 nM; with eTau2 it was 0.7 nM. In addition, the binding result with eTau4 [2] was “no binding”.

B8: 7299-M2 (antibody, IgG1, V domains shown)
VH: QVQLEESGAELVKPGASVKLSCKASGYTFTNYWINWVKQRPGQGLEWIGNIYPGSTRANYNEKFKSKATLTVDTSSSTAYMQVSSLTSDDSAVYYCTRTHSIWGQGTQVTVSA
VL: DIVLTQTPLTLSVTIGQPASISCKSSQSLLYSDGKTFLNWLLQSPGQSPRLLIYLVSKLQSGVPDRFSGSGSGTDFTLKISRVEAEDLGVYYCVQGTHFPYTFGGGTKLEIKR
For the molecule B8, the binding result with eTau1 was “no binding”; with eTau3, “no binding”; in the assay with eTau2, “no binding”; in assay [5], “no binding (tested: log -8.2 M (about 6e-9 M))”. Further, the Kd in the assay with eTau4 [2] was found to be 0.8 nM. Moreover, the “EC50 (read off the curve)” value with eTau4 [3] is approximately 0.03 nM.

B9: 7299-M9 (antibody, IgG1, V domains shown)
VH: EVKLEQSGAELVKPGASVKLSCKASGYTFTNYWINWVKQRPGQGLEWIGNIYPGSTRANYNEKFKSKATLTVDTSSSTAYMQVSSLTSDDSAVYYCTRTHSIWGQGTQVTVSA
VL: DIVITQSPLSLSVTIGQPASISCKSSQSLLYSDGKTYLNWLQQRPGQSPKRLVYQVSKLDPGIPDRFSGSGSETDFTLKLSRVEAEDLGVYYCLQGTYYPHTFGGGTKLEIKR
Regarding B9, the Kd in assay [1] is 0.277 nM; in the assay with eTau1, 0.6 nM; with eTau3, 1 nM; with eTau2, 0.7 nM; with eTau4 [2], 0.6 nM.
